{"source": "patent US20250179172A1", "key": {"[1]": {"target": "murine CD5-His (Sino Biologicals, Cat. No. 50403-M08H) (murine) (UniProt P13379)", "sequence (P13379 24-371 limits assumed, stated change not applied)": "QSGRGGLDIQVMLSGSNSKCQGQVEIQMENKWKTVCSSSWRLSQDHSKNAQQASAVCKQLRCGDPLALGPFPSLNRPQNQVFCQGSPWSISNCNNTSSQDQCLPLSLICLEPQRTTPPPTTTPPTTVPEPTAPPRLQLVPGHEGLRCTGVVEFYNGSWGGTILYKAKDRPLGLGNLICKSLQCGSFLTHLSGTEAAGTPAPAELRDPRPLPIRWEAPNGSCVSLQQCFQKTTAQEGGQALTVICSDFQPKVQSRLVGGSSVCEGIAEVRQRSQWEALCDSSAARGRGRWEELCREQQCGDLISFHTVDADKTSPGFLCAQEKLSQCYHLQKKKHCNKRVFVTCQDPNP", "test": "ELISA on murine CD5-His, antibody 0.01 nM"}, "[2]": {"target": "human CD5, full length, on cells (Jurkat, endogenous; CHO-K1-human CD5, transfected) (human) (UniProt P06127)", "test": "FACS on CHO-K1-hCD5-2F8 cells"}, "[3]": {"target": "human CD5, full length, on cells (Jurkat, endogenous; CHO-K1-human CD5, transfected) (human) (UniProt P06127)", "test": "FACS on Jurkat cells"}, "[4]": {"target": "murine CD5-His (Sino Biologicals, Cat. No. 50403-M08H) (murine) (UniProt P13379)", "test": "ELISA on murine CD5-His, antibody 100.00 nM"}, "[5]": {"target": "human CD5 (Arg25-Pro372)-His protein (Acro, Cat. No. CD5-H52H5) (human) (UniProt P06127)", "test": "ELISA on hCD5-His, antibody 0.001 nM"}, "[6]": {"target": "murine CD5-His (Sino Biologicals, Cat. No. 50403-M08H) (murine) (UniProt P13379)", "test": "ELISA on murine CD5-His, antibody 1.00 nM"}, "[7]": {"target": "murine CD5-His (Sino Biologicals, Cat. No. 50403-M08H) (murine) (UniProt P13379)", "test": "ELISA on murine CD5-His, antibody '0.000' nM as printed"}, "[8]": {"target": "human CD5, full length, on cells (Jurkat, endogenous; CHO-K1-human CD5, transfected) (human) (UniProt P06127)", "test": "FACS on CHO-K1-hCD5-2B2 cells"}, "[9]": {"target": "human CD5 (Arg25-Pro372)-His protein (Acro, Cat. No. CD5-H52H5) (human) (UniProt P06127)", "test": "ELISA on hCD5-His, antibody 0.1 nM"}, "[10]": {"target": "human CD5 (Arg25-Pro372)-His protein (Acro, Cat. No. CD5-H52H5) (human) (UniProt P06127)", "test": "ELISA on hCD5-His, antibody 0.0001 nM"}, "[11]": {"target": "human CD5 (Arg25-Pro372)-His protein (Acro, Cat. No. CD5-H52H5) (human) (UniProt P06127)", "test": "ELISA on hCD5-His, antibody 1 nM"}, "[12]": {"target": "human CD5 (Arg25-Pro372)-His protein (Acro, Cat. No. CD5-H52H5) (human) (UniProt P06127)", "test": "ELISA on hCD5-His, antibody 10 nM"}, "[13]": {"target": "human CD5 (Arg25-Pro372)-His protein (Acro, Cat. No. CD5-H52H5) (human) (UniProt P06127)", "test": "ELISA on hCD5-His, antibody 0.01 nM"}, "[14]": {"target": "murine CD5-His (Sino Biologicals, Cat. No. 50403-M08H) (murine) (UniProt P13379)", "test": "ELISA on murine CD5-His, antibody 10.00 nM"}, "[15]": {"target": "human CD5, full length, on cells (Jurkat, endogenous; CHO-K1-human CD5, transfected) (human) (UniProt P06127)", "test": "FACS on CHO-K1-hCD5-2E2 cells"}, "[16]": {"target": "human CD5, full length, on cells (Jurkat, endogenous; CHO-K1-human CD5, transfected) (human) (UniProt P06127)", "test": "FACS on CHO-K1-human CD5 cells"}, "[17]": {"target": "monkey CD5, full length, on HEK293T cells (monkey)", "sequence (chain, as listed by the source limits assumed)": "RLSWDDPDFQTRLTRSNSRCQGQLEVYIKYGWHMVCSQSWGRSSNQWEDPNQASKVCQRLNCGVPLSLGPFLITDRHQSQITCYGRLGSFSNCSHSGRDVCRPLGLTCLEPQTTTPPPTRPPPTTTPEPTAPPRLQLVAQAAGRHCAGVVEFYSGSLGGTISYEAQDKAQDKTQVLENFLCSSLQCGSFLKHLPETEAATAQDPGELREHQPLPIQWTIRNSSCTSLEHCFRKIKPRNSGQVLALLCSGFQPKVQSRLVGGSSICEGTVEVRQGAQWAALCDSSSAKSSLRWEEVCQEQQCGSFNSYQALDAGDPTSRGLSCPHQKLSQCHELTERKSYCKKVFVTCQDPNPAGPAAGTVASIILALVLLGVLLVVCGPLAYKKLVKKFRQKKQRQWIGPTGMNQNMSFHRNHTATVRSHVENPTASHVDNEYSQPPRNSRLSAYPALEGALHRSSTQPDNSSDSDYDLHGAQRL", "test": "FACS on HEK293T-monkey CD5 cells"}, "[18]": {"target": "human CD5 (Arg25-Pro372)-His protein (Acro, Cat. No. CD5-H52H5) (human) (UniProt P06127)", "test": "ELISA on hCD5-His, antibody 100 nM"}, "[19]": {"target": "human CD5, full length, on cells (Jurkat, endogenous; CHO-K1-human CD5, transfected) (human) (UniProt P06127)", "test": "FACS on CHO-K1-hCD5-2C6 cells"}, "[20]": {"target": "murine CD5-His (Sino Biologicals, Cat. No. 50403-M08H) (murine) (UniProt P13379)", "test": "ELISA on murine CD5-His, antibody 0.10 nM"}, "[21]": {"target": "murine CD5-His (Sino Biologicals, Cat. No. 50403-M08H) (murine) (UniProt P13379)", "test": "ELISA on murine CD5-His, antibody 0.001 nM"}}, "data": [{"substance": "Anti-HEL-hIgG1 (antibody against hen egg lysozyme, Biointron Cat. No. B117901)", "values": [{"measurement": "OD450", "setting": "[1]", "value": 0.11, "unit": "OD450"}, {"measurement": "Mean fluorescence intensity of cells", "setting": "[2]", "value": 65.9, "unit": "MFI"}, {"measurement": "Max MFI", "setting": "[3]", "value": 62, "unit": "MFI"}, {"measurement": "Mean fluorescence intensity of cells", "setting": "[3]", "value": 97, "unit": "MFI"}, {"measurement": "OD450", "setting": "[4]", "value": 0.12, "unit": "OD450"}, {"measurement": "OD450", "setting": "[5]", "value": 0.05, "unit": "OD450"}, {"measurement": "OD450", "setting": "[6]", "value": 0.11, "unit": "OD450"}, {"measurement": "OD450", "setting": "[7]", "value": 0.11, "unit": "OD450"}, {"measurement": "Mean fluorescence intensity of cells", "setting": "[8]", "value": 65.9, "unit": "MFI"}, {"measurement": "OD450", "setting": "[9]", "value": 0.05, "unit": "OD450"}, {"measurement": "OD450", "setting": "[10]", "value": 0.05, "unit": "OD450"}, {"measurement": "OD450", "setting": "[11]", "value": 0.05, "unit": "OD450"}, {"measurement": "OD450", "setting": "[12]", "value": 0.05, "unit": "OD450"}, {"measurement": "OD450", "setting": "[13]", "value": 0.05, "unit": "OD450"}, {"measurement": "OD450", "setting": "[14]", "value": 0.12, "unit": "OD450"}, {"measurement": "Mean fluorescence intensity of cells", "setting": "[15]", "value": 65.9, "unit": "MFI"}, {"measurement": "Max MFI", "setting": "[16]", "value": 93, "unit": "MFI"}, {"measurement": "Max MFI", "setting": "[17]", "value": 79, "unit": "MFI"}, {"measurement": "OD450", "setting": "[18]", "value": 0.06, "unit": "OD450"}, {"measurement": "Mean fluorescence intensity of cells", "setting": "[19]", "value": 65.9, "unit": "MFI"}, {"measurement": "OD450", "setting": "[20]", "value": 0.11, "unit": "OD450"}, {"measurement": "OD450", "setting": "[21]", "value": 0.11, "unit": "OD450"}]}]}
